Results published in patent US7326418B2, “Identification of novel factors that block programmed cell death or apoptosis by targeting JNK” (University of Chicago, priority 2001, dated 2008).

Assays:
[1] = molecular target: T1, MEKK4 (Mus musculus, UniProt O08648); experiment: GST pull-down, GST-Gadd45β beads with in vitro translated 35S-labeled MEKK4; format: binding, murine
T1 construct: plasmids encoding full-length (FL) human ASK1, MEKK4, JNKK1, and JNKK2; made in house; host or cells: TNT coupled reticulocyte lysate (Promega), in vitro transcription/translation from pBS
T1 sequence (O08648 whole entry): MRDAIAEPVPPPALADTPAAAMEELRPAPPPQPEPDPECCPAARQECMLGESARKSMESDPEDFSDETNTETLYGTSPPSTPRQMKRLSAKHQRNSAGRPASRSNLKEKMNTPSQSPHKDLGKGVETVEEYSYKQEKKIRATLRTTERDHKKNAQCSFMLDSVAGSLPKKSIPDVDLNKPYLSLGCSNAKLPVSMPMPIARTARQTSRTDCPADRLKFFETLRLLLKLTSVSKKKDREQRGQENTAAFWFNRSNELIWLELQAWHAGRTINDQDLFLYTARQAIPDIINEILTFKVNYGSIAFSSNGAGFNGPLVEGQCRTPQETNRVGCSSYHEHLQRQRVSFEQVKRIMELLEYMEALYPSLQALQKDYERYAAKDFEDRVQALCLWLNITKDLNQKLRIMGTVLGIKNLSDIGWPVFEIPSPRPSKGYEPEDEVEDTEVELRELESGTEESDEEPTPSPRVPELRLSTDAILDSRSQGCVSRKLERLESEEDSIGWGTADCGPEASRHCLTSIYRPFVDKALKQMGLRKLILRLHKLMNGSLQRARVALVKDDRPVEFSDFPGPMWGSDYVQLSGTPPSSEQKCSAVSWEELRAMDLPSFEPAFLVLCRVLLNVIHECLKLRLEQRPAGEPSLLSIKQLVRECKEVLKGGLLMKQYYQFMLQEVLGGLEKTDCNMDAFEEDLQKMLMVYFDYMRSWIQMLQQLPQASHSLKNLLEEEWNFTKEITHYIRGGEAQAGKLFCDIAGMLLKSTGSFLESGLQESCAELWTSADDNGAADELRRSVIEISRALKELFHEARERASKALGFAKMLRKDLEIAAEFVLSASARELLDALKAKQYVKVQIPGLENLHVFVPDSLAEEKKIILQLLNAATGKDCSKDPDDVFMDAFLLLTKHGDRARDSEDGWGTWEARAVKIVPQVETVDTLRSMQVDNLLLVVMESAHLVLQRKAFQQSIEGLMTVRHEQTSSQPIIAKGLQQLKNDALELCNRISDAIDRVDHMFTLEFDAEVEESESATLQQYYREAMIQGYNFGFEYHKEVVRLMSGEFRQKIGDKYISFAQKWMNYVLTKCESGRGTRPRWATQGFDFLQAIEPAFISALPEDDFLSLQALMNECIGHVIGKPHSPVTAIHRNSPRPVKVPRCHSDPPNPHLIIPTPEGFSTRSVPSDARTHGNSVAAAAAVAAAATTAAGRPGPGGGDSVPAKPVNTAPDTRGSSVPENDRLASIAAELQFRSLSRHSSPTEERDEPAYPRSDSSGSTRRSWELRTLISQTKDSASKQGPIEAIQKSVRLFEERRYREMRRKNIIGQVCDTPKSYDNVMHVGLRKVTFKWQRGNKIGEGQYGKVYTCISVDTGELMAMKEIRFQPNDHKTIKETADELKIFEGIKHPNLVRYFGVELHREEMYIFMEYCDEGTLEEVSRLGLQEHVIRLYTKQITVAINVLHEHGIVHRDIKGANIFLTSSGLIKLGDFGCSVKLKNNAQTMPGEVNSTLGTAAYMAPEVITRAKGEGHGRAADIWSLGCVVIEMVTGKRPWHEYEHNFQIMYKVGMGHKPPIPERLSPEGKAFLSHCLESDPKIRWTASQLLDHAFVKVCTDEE
Experimental: (§1) To confirm the above interactions, in vitro, GST pull-down experiments were performed. pBluescript (pBS) plasmids encoding full-length (FL) human ASK1, MEKK4, JNKK1, and JNKK2, or polypeptides derived from the amino- or carboxy-terminal portions of ASK1 (i.e. N-ASK1, spanning from amino acids 1 to 756, and C-ASK1, spanning from amino acids 648 to 1375) were transcribed and translated in vitro using the TNT coupled retyculocyte lysate system (Promega) in the presence of ^35S-methionine. 5 μl of each translation mix were incubated, in vitro, with sepharose-4B beads that had been coated with either purified glutathione-S-transferase (GST) polypeptides or GST-Gadd45β proteins. The latter proteins contained FL murine Gadd45β directly fused to GST. Binding assays were performed according to standard procedures, and ^35S-labeled proteins that bound to beads, as well as 2 μl of each in vitro translation mix (input), were then resolved by SDS polyacrylamide gel electrophoresis. Asterisks indicate the intact translated products. […] Thus, GST pull-down experiments confirmed the strong interaction between Gadd45β and JNKK2 observed in vivo, as well as the weaker interactions of Gadd45β with other kinases in the JNK pathway. These assays also uncovered a weak association between Gadd45β and JNKK1. […]

[2] = molecular target: T2, ASK1 (Homo sapiens, UniProt Q99683); experiment: GST pull-down, GST-Gadd45β beads with in vitro translated 35S-labeled ASK1; format: binding; set-up: plasmids encoding full-length (FL) human ASK1, MEKK4, JNKK1, and JNKK2; made in house; host or cells: TNT coupled reticulocyte lysate (Promega), in vitro transcription/translation from pBS
T2 sequence (Q99683 1-1374): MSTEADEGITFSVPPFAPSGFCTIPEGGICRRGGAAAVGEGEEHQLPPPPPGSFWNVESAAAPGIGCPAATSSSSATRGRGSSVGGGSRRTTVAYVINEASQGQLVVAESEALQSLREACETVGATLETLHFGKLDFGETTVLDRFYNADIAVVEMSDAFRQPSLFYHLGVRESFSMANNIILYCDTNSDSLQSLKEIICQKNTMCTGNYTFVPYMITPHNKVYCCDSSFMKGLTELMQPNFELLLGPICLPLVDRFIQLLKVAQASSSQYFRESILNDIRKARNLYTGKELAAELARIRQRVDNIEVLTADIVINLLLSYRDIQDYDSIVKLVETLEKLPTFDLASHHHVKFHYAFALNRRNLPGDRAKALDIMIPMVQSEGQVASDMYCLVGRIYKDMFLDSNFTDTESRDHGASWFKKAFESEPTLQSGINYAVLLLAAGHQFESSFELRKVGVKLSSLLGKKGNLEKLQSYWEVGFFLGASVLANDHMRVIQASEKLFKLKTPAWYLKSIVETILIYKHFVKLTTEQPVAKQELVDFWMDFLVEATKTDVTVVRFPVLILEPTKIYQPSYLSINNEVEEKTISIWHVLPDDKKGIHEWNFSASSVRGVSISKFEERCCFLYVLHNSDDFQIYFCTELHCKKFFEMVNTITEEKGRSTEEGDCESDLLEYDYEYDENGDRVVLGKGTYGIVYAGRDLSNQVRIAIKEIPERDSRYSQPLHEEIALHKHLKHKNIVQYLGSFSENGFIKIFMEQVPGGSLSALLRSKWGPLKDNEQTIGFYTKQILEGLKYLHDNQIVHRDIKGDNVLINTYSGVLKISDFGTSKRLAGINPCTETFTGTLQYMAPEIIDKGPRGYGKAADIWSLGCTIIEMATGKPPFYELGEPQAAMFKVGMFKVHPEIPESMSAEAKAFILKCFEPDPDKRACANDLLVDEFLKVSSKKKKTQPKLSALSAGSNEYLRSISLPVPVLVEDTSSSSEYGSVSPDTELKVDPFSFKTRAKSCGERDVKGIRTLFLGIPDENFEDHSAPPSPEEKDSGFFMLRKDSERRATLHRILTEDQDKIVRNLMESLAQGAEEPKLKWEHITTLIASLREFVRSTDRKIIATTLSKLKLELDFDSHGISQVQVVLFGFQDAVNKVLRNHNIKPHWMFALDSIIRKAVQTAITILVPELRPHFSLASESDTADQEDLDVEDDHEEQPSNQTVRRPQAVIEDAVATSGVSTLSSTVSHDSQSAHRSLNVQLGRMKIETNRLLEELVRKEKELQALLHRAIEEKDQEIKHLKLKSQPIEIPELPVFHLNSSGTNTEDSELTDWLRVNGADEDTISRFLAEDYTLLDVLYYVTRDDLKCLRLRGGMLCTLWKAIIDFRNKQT
Experimental: as §1

B1: GST-Gadd45β: full-length murine Gadd45β directly fused to GST, purified from E. coli (protein)
chain: MTLEELVASDNAVQKMQAVTAAVEQLLVAAQRQDRLTVGVYEAAKLMNVDPDSVVLCLLAIDEEEEDDIALQIHFTLIQSFCCDNDIDIVRVSGMQRLAQLLGEPAETLGTTEARDLHCLLVTNCHTDSWKSQGLVEVASYCEESRGNNQWVPYISLEER
modifications: left off: a dimerising Fc or GST
notes: full-length murine Gadd45β directly fused to GST, purified from E. coli
association with MEKK4 [1]: less avidly than with JNKK2
association with ASK1 [2]: less avidly than with JNKK2
